These results are taken from patent US20220119531A1 (I MAB BIOPHARMA US, published 2022).

Substitutions are numbered along the chain they refer to. Names may count otherwise.

Experiment [1] concerns the target T1, human PD-L1 expressed on mammalian cells (human, UniProt Q9NZQ7 19-290).
T1 construct: whole, on cells; The cell line (CHOK1 or Raji) is named under assay in each row; also called PDL1-CHOK1 cells; PD-L1 Raji cells
Briefly: FACS on PD-L1 Raji cells by the text; the axis unit is printed only as 'ng', no volume. On the procedure:
Briefly, PD-L1 Raji cells were first incubated with 5-fold serially diluted humanized antibodies starting at 2 μg/ml at RT for 1 hour. After wash by FACS buffer (PBS with 2% FBS), the Alexa 488-anti-human IgG antibody was added to each well and incubated at RT for 1 hour. The MFI of Alexa 488 were evaluated by FACSAriaIII.

Experiment [2] concerns the target T2, PD-L1 Y134 alanine-scan mutant (human, UniProt Q9NZQ7 19-290, limits assumed).
T2 construct: Read by flow cytometry
In words: alanine-scan library, high-throughput flow cytometry; threshold for critical clones. An excerpt:
(§1) An alanine-scan library of PD-L1 was constructed. Briefly, 217 mutant clones of PD-L1 were generated on Integral Molecular's protein engineering platform. […] For each PD-L1 variant, the mean binding value was plotted as a function of expression (control anti-PD-L1 mAb reactivity).

The target in experiment [3] is T3, PD-L1 K162 alanine-scan mutant (human, UniProt Q9NZQ7 19-290, limits assumed).
T3 construct: Read by flow cytometry
T3 sequence (Q9NZQ7 other isoform, or with tags, fused parts or gaps mutant limits assumed): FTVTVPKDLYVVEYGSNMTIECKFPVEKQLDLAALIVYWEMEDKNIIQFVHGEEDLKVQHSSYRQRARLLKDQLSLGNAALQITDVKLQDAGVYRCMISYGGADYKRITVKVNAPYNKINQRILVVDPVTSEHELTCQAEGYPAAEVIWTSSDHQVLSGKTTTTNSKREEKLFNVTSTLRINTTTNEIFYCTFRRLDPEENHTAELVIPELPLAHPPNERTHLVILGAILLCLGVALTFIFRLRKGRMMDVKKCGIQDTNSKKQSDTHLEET
The experiment is described as above.
Text: as §1

In a further experiment the target is T4, PD-L1 N183A clone (human, UniProt Q9NZQ7 19-290, limits assumed).
T4 construct: Read by flow cytometry
T4 sequence (Q9NZQ7 19-290 N183A limits assumed): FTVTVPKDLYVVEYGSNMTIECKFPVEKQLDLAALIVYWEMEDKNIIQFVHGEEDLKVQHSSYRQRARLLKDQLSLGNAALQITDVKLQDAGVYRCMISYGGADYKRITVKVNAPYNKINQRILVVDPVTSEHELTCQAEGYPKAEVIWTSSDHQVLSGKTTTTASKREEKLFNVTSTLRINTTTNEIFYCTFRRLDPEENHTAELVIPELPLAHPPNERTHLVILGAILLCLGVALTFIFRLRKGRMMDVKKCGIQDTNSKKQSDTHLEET
The description is as above.
Text: as §1

T1 sequence (Q9NZQ7 19-290): as the sequence (Q9NZQ7 19-290 N183A limits assumed) above, with A165N counted along it
T2 sequence (Q9NZQ7 other isoform, or with tags, fused parts or gaps mutant limits assumed): as the sequence (Q9NZQ7 19-290 N183A limits assumed) above, with Y116A, A165N counted along it

B1: Hu1210-41 (antibody, V domains shown)
VH: EVQLVESGGGLVQPGGSLRLSCAASGFTFSSYDMSWVRQAPGKSLEWVATISDAGGYIYYSDSVKGRFTISRDNAKNSLYLQMNSLRDEDTAVYICAREFGKRYALDYWGQGTTVTVSS
VL: DIQMTQSPSSLSASVGDRVTITCKASQDVTPAVAWYQQKPGKAPKLLIYSTSSRYTGVPSRFSGSGSGTDFTFTISSLQPEDIATYYCQQHYTTPLTFGQGTKLEIK
notes: Humanized; also called Hu1210-41 antibody; parental antibody Hu1210-41
In the case of B1, the “EC50 (read off the curve)” value in experiment [1] was ~0.5 ng.

B2: WT (S60R mutant of Hu1210-41) (antibody, V domains shown)
VH: B1 VH with S61R
VL: B1 VL
notes: Differs from Hu1210-41 by S60R (Kabat) in the heavy chain; Detected with anti-human IgG; also called S6OR (CDRH2) mutant; parental antibody WT
In the case of B2, in experiment [1], the “EC50 (read off the curve)” value is ~0.4 ng.

B3: Hu1210-41 Fab (Fab, V domains shown)
VH: B1 VH
VL: B1 VL
B3: the “% WT reactivity” value (in experiment [2]; in experiment [3]; with PD-L1 N183A clone) was < 30 % of WT in each case.
